Measurements as given in patent publication US20230340058A1.

target: human RXFP1, full-length (human), Q9HBX9; assay: cell-based or functional assay
Sequence (Q9HBX9 whole entry): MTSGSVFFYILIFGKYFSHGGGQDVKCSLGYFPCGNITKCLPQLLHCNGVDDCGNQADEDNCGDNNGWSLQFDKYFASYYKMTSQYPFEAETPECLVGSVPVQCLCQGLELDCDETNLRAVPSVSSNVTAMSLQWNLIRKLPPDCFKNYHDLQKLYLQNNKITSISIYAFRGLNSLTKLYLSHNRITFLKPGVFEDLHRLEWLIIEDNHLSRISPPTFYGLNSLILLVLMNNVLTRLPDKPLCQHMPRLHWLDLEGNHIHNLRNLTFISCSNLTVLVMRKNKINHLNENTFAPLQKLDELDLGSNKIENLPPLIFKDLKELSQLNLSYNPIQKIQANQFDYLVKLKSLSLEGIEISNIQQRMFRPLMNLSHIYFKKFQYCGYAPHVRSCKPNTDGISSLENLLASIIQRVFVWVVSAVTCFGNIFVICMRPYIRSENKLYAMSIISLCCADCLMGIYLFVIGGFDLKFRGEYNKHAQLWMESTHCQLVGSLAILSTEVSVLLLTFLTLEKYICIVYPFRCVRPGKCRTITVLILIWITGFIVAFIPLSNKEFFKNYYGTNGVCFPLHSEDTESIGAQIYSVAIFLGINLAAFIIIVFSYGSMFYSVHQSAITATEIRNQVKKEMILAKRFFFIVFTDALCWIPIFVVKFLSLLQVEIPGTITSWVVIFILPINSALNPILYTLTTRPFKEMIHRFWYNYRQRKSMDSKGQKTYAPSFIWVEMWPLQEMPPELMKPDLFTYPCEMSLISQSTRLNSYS

Binder | EC50 in nM (cAMP Response in RXFP1 Transfected HEK293 Cells) [nM] | Potency Assay EC50 (nM), transient hRXFP1 cAMP assay [nM] | pEC50 (cAMP Response in RXFP1 Transfected HEK293 Cells)
Relaxin-2 (R&D Biosystems 6586-RN-025) (ligand) chain 1: DSWMEEVIKLCGRELVRAQIAICGMSTWS chain 2: QLYSALANKCCHVGCTKRSLARFC | 0.042 | 0.1 | 10.4
SEQ ID NO: 205 (Fc fusion) DKTHTCPPCPAPEAAGGPSVFLFPPKPKDTLMISRTPEVTCVVVDVSHEDPEVKFNWYVDGVEVHNAKTKPREEQYNSTYRVVSVLTVLHQDWLNGKEYKCKVSNKALAAPIEKTISKAKGQPREPQVYTLPPSRDELTKNQVSLTCLVKGFYPSDIAVEWESNGQPENNYKTTPPVLDSDGSFFLYSKLTVDKSRWQQGNVFSCSVLHEALHSHYTQKSLSLSPGKGGSDSWKEEVIKLCGRELVRAQIAICGKSTGGGEGGGEGGGEGGGQLYSALANKCCHVGCTKRSLARFC |  | 12.3 | 
SEQ ID NO: 207 (Fc fusion) DKTHTCPPCPAPEAAGGPSVFLFPPKPKDTLMISRTPEVTCVVVDVSHEDPEVKFNWYVDGVEVHNAKTKPREEQYNSTYRVVSVLTVLHQDWLNGKEYKCKVSNKALAAPIEKTISKAKGQPREPQVYTLPPSRDELTKNQVSLTCLVKGFYPSDIAVEWESNGQPENNYKTTPPVLDSDGSFFLYSKLTVDKSRWQQGNVFSCSVLHEALHSHYTQKSLSLSPGKGGSDSWMEEVIKLCGRELVRAQIAICGKSTGGGEGGGEGGGEGGGQLYSALANKCCHVGCTKRSLARFC |  | 16 | 
SEQ ID NO: 60 (Fc fusion) DKTHTCPPCPAPEAAGGPSVFLFPPKPKDTLMISRTPEVTCVVVDVSHEDPEVKFNWYVDGVEVHNAKTKPREEQYNSTYRVVSVLTVLHQDWLNGKEYKCKVSNKALAAPIEKTISKAKGQPREPQVYTLPPSRDELTKNQVSLTCLVKGFYPSDIAVEWESNGQPENNYKTTPPVLDSDGSFFLYSKLTVDKSRWQQGNVFSCSVLHEALHSHYTQKSLSLSPGKGGSDSWQEEVIKLCGRELVRAQIAICGKSTGGGEGGGEGGGEGGGQLYSALANKCCHVGCTKRSLARFC |  | 15.8 | 
SEQ ID NO: 212 (Fc fusion) DKTHTCPPCPAPEAAGGPSVFLFPPKPKDTLMISRTPEVTCVVVDVSHEDPEVKFNWYVDGVEVHNAKTKPREEQYNSTYRVVSVLTVLHQDWLNGKEYKCKVSNKALAAPIEKTISKAKGQPREPQVYTLPPSRDELTKNQVSLTCLVKGFYPSDIAVEWESNGQPENNYKTTPPVLDSDGSFFLYSKLTVDKSRWQQGNVFSCSVLHEALHSHYTQKSLSLSPGKGGSDSWKEEVIKLCGRELVRAQIAICGKSTASDAAGANANAGARQLYSALANKCCHVGCTKRSLAQFC |  | 0.5 | 
SEQ ID NO: 213 (Fc fusion) DKTHTCPPCPAPEAAGGPSVFLFPPKPKDTLMISRTPEVTCVVVDVSHEDPEVKFNWYVDGVEVHNAKTKPREEQYNSTYRVVSVLTVLHQDWLNGKEYKCKVSNKALAAPIEKTISKAKGQPREPQVYTLPPSRDELTKNQVSLTCLVKGFYPSDIAVEWESNGQPENNYKTTPPVLDSDGSFFLYSKLTVDKSRWQQGNVFSCSVLHEALHSHYTQKSLSLSPGKGGSDSWKEEVIKLCGRELVRAQIAICGKSTASDAAGANANAGARQLYSALANKCCHVGCTKRSLAEFC |  | 1.8 | 
SEQ ID NO: 210 (Fc fusion) DKTHTCPPCPAPEAAGGPSVFLFPPKPKDTLMISRTPEVTCVVVDVSHEDPEVKFNWYVDGVEVHNAKTKPREEQYNSTYRVVSVLTVLHQDWLNGKEYKCKVSNKALAAPIEKTISKAKGQPREPQVYTLPPSRDELTKNQVSLTCLVKGFYPSDIAVEWESNGQPENNYKTTPPVLDSDGSFFLYSKLTVDKSRWQQGNVFSCSVLHEALHSHYTQKSLSLSPGGGSDSWMEEVIKLCGRELVRAQIAICGKSTGGEGGGEEGGGEGGQLYSALANKCCHVGCTKRSLARFC |  | 140 | 
SEQ ID NO: 68 (Fc fusion) DKTHTCPPCPAPEAAGGPSVFLFPPKPKDTLMISRTPEVTCVVVDVSHEDPEVKFNWYVDGVEVHNAKTKPREEQYNSTYRVVSVLTVLHQDWLNGKEYKCKVSNKALAAPIEKTISKAKGQPREPQVYTLPPSRDELTKNQVSLTCLVKGFYPSDIAVEWESNGQPENNYKTTPPVLDSDGSFFLYSKLTVDKSRWQQGNVFSCSVLHEALHSHYTQKSLSLSPGGGSDSWQEEVIKLCGRELVRAQIAICGKSTGGGEGGGEGGGEGRQLYSALANKCCHVGCTKRSLARFC |  | 3.3 | 
SEQ ID NO: 211 (Fc fusion) DKTHTCPPCPAPEAAGGPSVFLFPPKPKDTLMISRTPEVTCVVVDVSHEDPEVKFNWYVDGVEVHNAKTKPREEQYNSTYRVVSVLTVLHQDWLNGKEYKCKVSNKALAAPIEKTISKAKGQPREPQVYTLPPSRDELTKNQVSLTCLVKGFYPSDIAVEWESNGQPENNYKTTPPVLDSDGSFFLYSKLTVDKSRWQQGNVFSCSVLHEALHSHYTQKSLSLSPGGGSDSWQEEVIKLCGRELVRAQIAICGKSTGGEGGGEEGGGEGGQLYSALANKCCHVGCTKRSLARFC |  | 101 | 
SEQ ID NO: 70 (Fc fusion) DKTHTCPPCPAPEAAGGPSVFLFPPKPKDTLMISRTPEVTCVVVDVSHEDPEVKFNWYVDGVEVHNAKTKPREEQYNSTYRVVSVLTVLHQDWLNGKEYKCKVSNKALAAPIEKTISKAKGQPREPQVYTLPPSRDELTKNQVSLTCLVKGFYPSDIAVEWESNGQPENNYKTTPPVLDSDGSFFLYSKLTVDKSRWQQGNVFSCSVLHEALHSHYTQKSLSLSPGGGSDSWQEEVIKLCGRELVRAQIAICGKSTGGGEGGGEGGGEGRQLYSALANKCCHVGCTKRSLAQFC |  | 8 | 
SEQ ID NO: 204 (Fc fusion) DKTHTCPPCPAPEAAGGPSVFLFPPKPKDTLMISRTPEVTCVVVDVSHEDPEVKFNWYVDGVEVHNAKTKPREEQYNSTYRVVSVLTVLHQDWLNGKEYKCKVSNKALAAPIEKTISKAKGQPREPQVYTLPPSRDELTKNQVSLTCLVKGFYPSDIAVEWESNGQPENNYKTTPPVLDSDGSFFLYSKLTVDKSRWQQGNVFSCSVLHEALHSHYTQKSLSLSPGKGGSDSWKEEVIKLCGRELVRAQIAICGKSTGGGEGGGEGGGEGRQLYSALANKCCHVGCTKRSLARFC |  | 2.5 | 
SEQ ID NO: 72 (Fc fusion) DKTHTCPPCPAPEAAGGPSVFLFPPKPKDTLMISRTPEVTCVVVDVSHEDPEVKFNWYVDGVEVHNAKTKPREEQYNSTYRVVSVLTVLHQDWLNGKEYKCKVSNKALAAPIEKTISKAKGQPREPQVYTLPPSRDELTKNQVSLTCLVKGFYPSDIAVEWESNGQPENNYKTTPPVLDSDGSFFLYSKLTVDKSRWQQGNVFSCSVLHEALHSHYTQKSLSLSPGKGGSDSWQEEVIKLCGRELVRAQIAICGKSTGGGEEGGGEEGGGRQLYSALANKCCHVGCTKRSLARFC |  | 5.8 | 
SEQ ID NO: 209 (Fc fusion) DKTHTCPPCPAPEAAGGPSVFLFPPKPKDTLMISRTPEVTCVVVDVSHEDPEVKFNWYVDGVEVHNAKTKPREEQYNSTYRVVSVLTVLHQDWLNGKEYKCKVSNKALAAPIEKTISKAKGQPREPQVYTLPPSRDELTKNQVSLTCLVKGFYPSDIAVEWESNGQPENNYKTTPPVLDSDGSFFLYSKLTVDKSRWQQGNVFSCSVLHEALHSHYTQKSLSLSPGKGGSDSWQEEVIKLCGRELVRAQIAICGKSTGGEGGGEEGGGEGGQLYSALANKCCHVGCTKRSLARFC |  | 62.8 | 
SEQ ID NO: 208 (Fc fusion) DKTHTCPPCPAPEAAGGPSVFLFPPKPKDTLMISRTPEVTCVVVDVSHEDPEVKFNWYVDGVEVHNAKTKPREEQYNSTYRVVSVLTVLHQDWLNGKEYKCKVSNKALAAPIEKTISKAKGQPREPQVYTLPPSRDELTKNQVSLTCLVKGFYPSDIAVEWESNGQPENNYKTTPPVLDSDGSFFLYSKLTVDKSRWQQGNVFSCSVLHEALHSHYTQKSLSLSPGKGGSDSWMEEVIKLCGRELVRAQIAICGKSTGGEGGGEEGGGEGGQLYSALANKCCHVGCTKRSLARFC |  | 60.3 | 
SEQ ID NO: 206 (Fc fusion) DKTHTCPPCPAPEAAGGPSVFLFPPKPKDTLMISRTPEVTCVVVDVSHEDPEVKFNWYVDGVEVHNAKTKPREEQYNSTYRVVSVLTVLHQDWLNGKEYKCKVSNKALAAPIEKTISKAKGQPREPQVYTLPPSRDELTKNQVSLTCLVKGFYPSDIAVEWESNGQPENNYKTTPPVLDSDGSFFLYSKLTVDKSRWQQGNVFSCSVLHEALHSHYTQKSLSLSPGKGGSDSWMEEVIKLCGRELVRAQIAICGKSTGGGEGGGEGGGEGRQLYSALANKCCHVGCTKRSLARFC |  | 2.9 | 
SEQ ID NO: 57 (Fc fusion) DKTHTCPPCPAPEAAGGPSVFLFPPKPKDTLMISRTPEVTCVVVDVSHEDPEVKFNWYVDGVEVHNAKTKPREEQYNSTYRVVSVLTVLHQDWLNGKEYKCKVSNKALAAPIEKTISKAKGQPREPQVYTLPPSRDELTKNQVSLTCLVKGFYPSDIAVEWESNGQPENNYKTTPPVLDSDGSFFLYSKLTVDKSRWQQGNVFSCSVLHEALHSHYTQKSLSLSPGKGGSDSWQEEVIKLCGRELVRAQIAICGKSTGGGEGGGEGGGEGRQLYSALANKCCHVGCTKRSLARFC |  | 2.5 | 
SEQ ID NO: 66 (Fc fusion) DKTHTCPPCPAPEAAGGPSVFLFPPKPKDTLMISRTPEVTCVVVDVSHEDPEVKFNWYVDGVEVHNAKTKPREEQYNSTYRVVSVLTVLHQDWLNGKEYKCKVSNKALAAPIEKTISKAKGQPREPQVYTLPPSRDELTKNQVSLTCLVKGFYPSDIAVEWESNGQPENNYKTTPPVLDSDGSFFLYSKLTVDKSRWQQGNVFSCSVLHEALHSHYTQKSLSLSPGKGGSDSWQEEVIKLCGRELVRAQIAICGKSTGGGEGGGEGGGEGRQLYSALANKCCHVGCTKRSLAQFC |  | 4.2 | 
SEQ ID NO: 74 (Fc fusion) DKTHTCPPCPAPEAAGGPSVFLFPPKPKDTLMISRTPEVTCVVVDVSHEDPEVKFNWYVDGVEVHNAKTKPREEQYNSTYRVVSVLTVLHQDWLNGKEYKCKVSNKALAAPIEKTISKAKGQPREPQVYTLPPSRDELTKNQVSLTCLVKGFYPSDIAVEWESNGQPENNYKTTPPVLDSDGSFFLYSKLTVDKSRWQQGNVFSCSVLHEALHSHYTQKSLSLSPGKGGSDSWQEEVIKLCGRELVRAQIAICGKSTGGGEEGGGEEGGGRQLYSALANKCCHVGCTKRSLAQFC |  | 10.2 | 
